Test results published in article PMC5487730, “Functional Role of Lanthanides in Enzymatic Activity and Transcriptional Regulation of Pyrroloquinoline Quinone-Dependent Alcohol Dehydrogenases in Pseudomonas putida KT2440” (mBio, 2017).

T1: PedE (Pseudomonas putida, UniProt Q88JH5)
T1 sequence (Q88JH5 34-631): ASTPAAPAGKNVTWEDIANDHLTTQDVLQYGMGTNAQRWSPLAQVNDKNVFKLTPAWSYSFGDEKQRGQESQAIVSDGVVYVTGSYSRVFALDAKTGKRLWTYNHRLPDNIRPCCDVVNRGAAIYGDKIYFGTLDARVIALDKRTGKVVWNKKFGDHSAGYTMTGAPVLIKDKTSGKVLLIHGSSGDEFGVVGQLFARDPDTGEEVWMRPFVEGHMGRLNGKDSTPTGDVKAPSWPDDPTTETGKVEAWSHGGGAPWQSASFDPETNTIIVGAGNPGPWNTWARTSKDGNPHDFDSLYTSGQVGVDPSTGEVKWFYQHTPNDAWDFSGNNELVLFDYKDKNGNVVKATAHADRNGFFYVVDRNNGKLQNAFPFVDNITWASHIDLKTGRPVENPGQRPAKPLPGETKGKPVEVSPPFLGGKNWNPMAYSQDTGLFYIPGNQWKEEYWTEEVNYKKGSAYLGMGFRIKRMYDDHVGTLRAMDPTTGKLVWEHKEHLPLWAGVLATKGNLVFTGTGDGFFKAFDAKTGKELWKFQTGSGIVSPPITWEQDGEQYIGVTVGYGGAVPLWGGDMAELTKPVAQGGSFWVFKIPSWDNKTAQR

T2: PedH (Pseudomonas putida, UniProt Q88JH0)
T2 sequence (Q88JH0 28-595): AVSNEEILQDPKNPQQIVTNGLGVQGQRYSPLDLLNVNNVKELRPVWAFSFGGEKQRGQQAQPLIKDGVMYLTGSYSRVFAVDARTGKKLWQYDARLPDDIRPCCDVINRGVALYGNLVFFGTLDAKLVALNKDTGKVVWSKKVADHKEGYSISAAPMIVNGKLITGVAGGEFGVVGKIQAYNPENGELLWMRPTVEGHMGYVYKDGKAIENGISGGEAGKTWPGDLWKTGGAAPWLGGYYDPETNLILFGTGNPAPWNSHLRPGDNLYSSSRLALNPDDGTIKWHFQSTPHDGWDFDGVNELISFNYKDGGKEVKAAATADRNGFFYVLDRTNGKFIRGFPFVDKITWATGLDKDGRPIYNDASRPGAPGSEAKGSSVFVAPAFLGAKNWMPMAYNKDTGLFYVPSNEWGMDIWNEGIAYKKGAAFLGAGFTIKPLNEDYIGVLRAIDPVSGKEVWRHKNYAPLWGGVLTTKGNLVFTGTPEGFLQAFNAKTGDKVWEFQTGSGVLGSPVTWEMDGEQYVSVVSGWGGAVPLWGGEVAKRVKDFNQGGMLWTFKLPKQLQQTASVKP

B1: PedH (Pseudomonas putida KT2440) (protein)
chain: T2 sequence (Q88JH0 28-595)

How the values were obtained:
PedE = target: T1, PedE; test: DCPIP/PMS dye-linked activity titrated with PQQ, one-site binding fit; type: biochemical; conditions: 10 mM ethanol, 1 mM CaCl2, 25 mM imidazole, 100 mM Tris HCl pH 8, 30°C preincubation
PedH = target: T2, PedH; test: as above; type: biochemical; conditions: 10 mM ethanol, 1 µM PrCl3, 25 mM imidazole, 100 mM Tris HCl pH 8, 30°C preincubation
purified protein = substrate: CCO; test: purified protein; conditions: 1 µM PrCl3, 1 µM PQQ, 25 mM imidazole, 500 µM PMS, 150 µM DCPIP, 100 mM Tris HCl pH 8, 30°C preincubation
[1] = substrate: CC=O; test: DCPIP/PMS dye-linked colorimetric assay, Michaelis-Menten fit; type: biochemical, Pseudomonas putida; conditions: 1 µM PrCl3, 1 µM PQQ, 25 mM imidazole, 500 µM PMS, 150 µM DCPIP, 100 mM Tris HCl pH 8, 30°C preincubation
[2] = substrate: OCCc1ccccc1; test: as above; type: biochemical, Pseudomonas putida; conditions: 1 µM PrCl3, 1 µM PQQ, 25 mM imidazole, 500 µM PMS, 150 µM DCPIP, 100 mM Tris HCl pH 8, 30°C preincubation

Molecule	Kd (PedE)	Kd (PedH)	Km (purified protein)	Km [1]	Km [2]
O=C(O)c1cc(C(=O)O)c2c(n1)C(=O)C(=O)c1cc(C(=O)O)[nH]c1-2 [PQQ]	3.5 µM	41 nM			
B1			177 µM	2261 ± 457 µM	329 ± 22 µM
